The source of these data is patent US6939949B2.

Experiment [1] has as its target UvrA. Description: BIACORE sensor chip (NTA), β domain immobilised, UvrA in solution, in the presence of ATP.
Experiment [2] has as its target UvrA. The experiment in a line: BIACORE sensor chip (NTA), β domain immobilised, UvrA in solution, in the absence of ATP. In general terms: SPR reads the build-up and loss of mass on a sensor chip optically.

For “TRCF-β (β domain of Thermus thermophilus HB8 transcription-repair coupling factor), His-tagged”, the Kd is 500 nM in experiment [1] and 1300 nM in experiment [2].

The Kd is the equilibrium constant for the complex coming apart.
